B1: GLTSCR2 (parent)
chain: FQRRNMIEPRERAKFKRKYKVKLV

Our source for the protein stability index values is the supplement of paper PMC10567573.
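Further: lentivirally expressed fusions sorted by FACS into six bins by GFP to DsRed ratio, PSI derived from sequencing read proportions per bin multiplied by bin number.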

In the data set the parent is B1. Briefly: protein stability index of a GFP-peptide fusion (GPS, HEK-293T) (PSI 1-6); higher = more stable. Particulars: c terminus: a fixed tail appended.
For the variant FQRRNMIEPTERAKFKRKYKVKLV [R10T], the protein stability index is 1.99.

For FQRRNMIEPIERAKFKRKYKVKLV [R10I], the protein stability index was 2.11.

For the variant FQRRNMIEPEERAKFKRKYKVKLV [R10E], the protein stability index was found to be 1.98.

Consider FQRRNMIEPLERAKFKRKYKVKLV [R10L], for which the protein stability index amounted to 2.47.

Regarding FQRRNMIEPAERAKFKRKYKVKLV [R10A], the protein stability index turned out to be 2.56.

For the variant FQRRNMIEPYERAKFKRKYKVKLV [R10Y], the protein stability index was determined as 2.17.

Take FQRRNMIEPCERAKFKRKYKVKLV [R10C]: the protein stability index came out at 3.03.

FQRRNMIEPWERAKFKRKYKVKLV [R10W]: the protein stability index was determined as 1.76.

Regarding FQRRNMIEPGERAKFKRKYKVKLV [R10G], the protein stability index stood at 2.12.

As to FQRRNMIEPMERAKFKRKYKVKLV [R10M], the protein stability index is 1.92.

With FQRRNMIEPNERAKFKRKYKVKLV [R10N], the protein stability index stood at 1.63.

Turning to FQRRNMIEPPERAKFKRKYKVKLV [R10P], the protein stability index worked out at 2.2.

Turning to FQRRNMIEPHERAKFKRKYKVKLV [R10H], the protein stability index was determined as 1.95.

As to FQRRNMIEPDERAKFKRKYKVKLV [R10D], the protein stability index was 2.58.

With FQRRNAIEPRERAKFKRKYKVKLV [M6A], the protein stability index is 2.56.

As for FQRRNQIEPRERAKFKRKYKVKLV [M6Q], the protein stability index stood at 2.74.

Regarding FQRRNWIEPRERAKFKRKYKVKLV [M6W], the protein stability index came to 3.61.

In the case of FQRRNYIEPRERAKFKRKYKVKLV [M6Y], the protein stability index is 2.48.

As for FQRRNIIEPRERAKFKRKYKVKLV [M6I], the protein stability index amounted to 2.25.

Take FQRRNHIEPRERAKFKRKYKVKLV [M6H]: the protein stability index worked out at 2.33.

Take FQRRNCIEPRERAKFKRKYKVKLV [M6C]: the protein stability index is 1.74.

In the case of FQRRNKIEPRERAKFKRKYKVKLV [M6K], the protein stability index was 2.52.

Turning to FQRRNNIEPRERAKFKRKYKVKLV [M6N], the protein stability index is 2.27.

In the case of FQRRNSIEPRERAKFKRKYKVKLV [M6S], the protein stability index was determined as 3.25.

In the case of FQRRNFIEPRERAKFKRKYKVKLV [M6F], the protein stability index was determined as 1.93.

FQRRNVIEPRERAKFKRKYKVKLV [M6V]: the protein stability index was 2.14.

With FQRRNEIEPRERAKFKRKYKVKLV [M6E], the protein stability index was 3.08.

In the case of FQRRNPIEPRERAKFKRKYKVKLV [M6P], the protein stability index is 2.25.

FQRRNLIEPRERAKFKRKYKVKLV [M6L]: the protein stability index stood at 1.63.

As for FQRRNTIEPRERAKFKRKYKVKLV [M6T], the protein stability index was determined as 3.15.

With FQRRNGIEPRERAKFKRKYKVKLV [M6G], the protein stability index amounted to 2.57.

For FQRRNDIEPRERAKFKRKYKVKLV [M6D], the protein stability index was found to be 2.31.

FQRRNRIEPRERAKFKRKYKVKLV [M6R]: the protein stability index is 2.92.

Take FQRRNMIHPRERAKFKRKYKVKLV [E8H]: the protein stability index stood at 2.33.

As for FQRRNMIWPRERAKFKRKYKVKLV [E8W], the protein stability index is 1.91.

In the case of FQRRNMILPRERAKFKRKYKVKLV [E8L], the protein stability index was 2.27.

For FQRRNMITPRERAKFKRKYKVKLV [E8T], the protein stability index is 2.05.

For FQRRNMIFPRERAKFKRKYKVKLV [E8F], the protein stability index was determined as 1.82.

FQRRNMIDPRERAKFKRKYKVKLV [E8D]: the protein stability index was found to be 2.13.

For the variant FQRRNMIAPRERAKFKRKYKVKLV [E8A], the protein stability index was 2.7.

FQRRNMICPRERAKFKRKYKVKLV [E8C]: the protein stability index turned out to be 3.15.

As for FQRRNMIIPRERAKFKRKYKVKLV [E8I], the protein stability index is 2.02.

With FQRRNMIPPRERAKFKRKYKVKLV [E8P], the protein stability index came to 2.42.

Consider FQRRNMIGPRERAKFKRKYKVKLV [E8G], for which the protein stability index was 2.18.

As for FQRRNMIMPRERAKFKRKYKVKLV [E8M], the protein stability index was found to be 2.34.

Turning to FQRRNMIRPRERAKFKRKYKVKLV [E8R], the protein stability index was found to be 1.83.

On to FQRRNMIVPRERAKFKRKYKVKLV [E8V], for which the protein stability index was 2.25.

FQRRNMIKPRERAKFKRKYKVKLV [E8K]: the protein stability index came to 2.35.

For FQRRNMIYPRERAKFKRKYKVKLV [E8Y], the protein stability index came out at 2.23.

Consider FQRRNMISPRERAKFKRKYKVKLV [E8S], for which the protein stability index was 2.04.

On to FQRRNMIQPRERAKFKRKYKVKLV [E8Q], for which the protein stability index was determined as 1.64.

In the case of FQRRNMINPRERAKFKRKYKVKLV [E8N], the protein stability index was found to be 2.3.

On to FQRRNMIEPRGRAKFKRKYKVKLV [E11G], for which the protein stability index worked out at 2.4.

As to FQRRNMIEPRWRAKFKRKYKVKLV [E11W], the protein stability index turned out to be 2.81.

For FQRRNMIEPRDRAKFKRKYKVKLV [E11D], the protein stability index was 2.53.

Turning to FQRRNMIEPRARAKFKRKYKVKLV [E11A], the protein stability index came to 2.54.

For the variant FQRRNMIEPRMRAKFKRKYKVKLV [E11M], the protein stability index came out at 2.37.

In the case of FQRRNMIEPRQRAKFKRKYKVKLV [E11Q], the protein stability index is 2.25.

Consider FQRRNMIEPRNRAKFKRKYKVKLV [E11N], for which the protein stability index stood at 2.6.

Consider FQRRNMIEPRPRAKFKRKYKVKLV [E11P], for which the protein stability index came to 2.66.

On to FQRRNMIEPRTRAKFKRKYKVKLV [E11T], for which the protein stability index was found to be 2.59.

As for FQRRNMIEPRSRAKFKRKYKVKLV [E11S], the protein stability index came to 2.2.

As for FQRRNMIEPRHRAKFKRKYKVKLV [E11H], the protein stability index was 2.18.

FQRRNMIEPRRRAKFKRKYKVKLV [E11R]: the protein stability index is 2.23.

FQRRNMIEPRYRAKFKRKYKVKLV [E11Y]: the protein stability index stood at 1.91.

As to FQRRNMIEPRIRAKFKRKYKVKLV [E11I], the protein stability index was determined as 1.6.

Consider FQRRNMIEPRFRAKFKRKYKVKLV [E11F], for which the protein stability index came to 2.37.

For FQRRNMIEPRVRAKFKRKYKVKLV [E11V], the protein stability index is 1.88.

Regarding FQRRNMIEPRCRAKFKRKYKVKLV [E11C], the protein stability index is 2.36.

For the variant FQRRNMIEPRLRAKFKRKYKVKLV [E11L], the protein stability index was 2.63.

As to FQRRNMIEPRKRAKFKRKYKVKLV [E11K], the protein stability index is 2.41.

With FQRRNMIEPRERADFKRKYKVKLV [K14D], the protein stability index was 2.09.

Consider FQRRNMIEPRERACFKRKYKVKLV [K14C], for which the protein stability index was 1.26.

For the variant FQRRNMIEPRERAAFKRKYKVKLV [K14A], the protein stability index is 1.81.

Consider FQRRNMIEPRERAEFKRKYKVKLV [K14E], for which the protein stability index was found to be 2.74.

Take FQRRHMIEPRERAKFKRKYKVKLV [N5H]: the protein stability index is 1.88.

For FQRRYMIEPRERAKFKRKYKVKLV [N5Y], the protein stability index turned out to be 2.33.

Turning to FQRRRMIEPRERAKFKRKYKVKLV [N5R], the protein stability index was determined as 2.56.

As for FQRRCMIEPRERAKFKRKYKVKLV [N5C], the protein stability index turned out to be 2.62.

FQRRSMIEPRERAKFKRKYKVKLV [N5S]: the protein stability index is 2.02.

Take FQRRMMIEPRERAKFKRKYKVKLV [N5M]: the protein stability index was found to be 2.5.

In the case of FQRREMIEPRERAKFKRKYKVKLV [N5E], the protein stability index is 3.05.

For the variant FQRRAMIEPRERAKFKRKYKVKLV [N5A], the protein stability index stood at 2.59.

As to FQRRLMIEPRERAKFKRKYKVKLV [N5L], the protein stability index was determined as 2.83.

On to FQRRQMIEPRERAKFKRKYKVKLV [N5Q], for which the protein stability index was determined as 2.36.

With FQRRPMIEPRERAKFKRKYKVKLV [N5P], the protein stability index turned out to be 2.36.

Consider FQRRVMIEPRERAKFKRKYKVKLV [N5V], for which the protein stability index is 2.29.

For FQRRFMIEPRERAKFKRKYKVKLV [N5F], the protein stability index amounted to 1.59.

For the variant FQRRWMIEPRERAKFKRKYKVKLV [N5W], the protein stability index turned out to be 2.1.

Consider FQRRGMIEPRERAKFKRKYKVKLV [N5G], for which the protein stability index turned out to be 2.57.

Consider FQRRIMIEPRERAKFKRKYKVKLV [N5I], for which the protein stability index came to 2.36.

Regarding FQRRTMIEPRERAKFKRKYKVKLV [N5T], the protein stability index turned out to be 1.88.

Regarding FQRRKMIEPRERAKFKRKYKVKLV [N5K], the protein stability index came to 2.42.

Turning to FQRRDMIEPRERAKFKRKYKVKLV [N5D], the protein stability index amounted to 2.23.
